Source: patent publication US20220289837A1 (VIB VZW, published 2022)
Each block holds one binder with its values, some of them ahead of it.

Columns and labels:
[1] = target: T1, Purified human wt-CFTR (His10-SUMO*-CFTRFLAG-EGFP), PKA phosphorylated (human, UniProt P13569 1-1480, PKA phosphorylated (sites not given)); experiment: ELISA, Twin-Strep nanobody immobilised, concentration of purified wt-CFTR varied
T1 construct: Expressed in HEK293 cell line D165, purified on NiNTA in DMNG detergent; used for the full-length CFTR ELISA and the ATPase assays; also called FL-CFTR; full-length CFTR; not shown: N-terminal His10-SUMO* tag; FLAG tag and enhanced green fluorescent protein (EGFP)
Source text: Quantification of at least 3 independent experiments (±SEM). (g) Immunoblot of CFTR from solubilized BHK-21 cells pulled-down with His-tagged nanobodies, including a non-CFTR nanobody as a control. Eluted nanobodies-CFTR complexes were separated by SDS-PAGE and presence of CFTR was detected with mAb 596 antibody after immunoblotting. Arrows indicate the mature (band C) and immature (band B) forms of CFTR. Representative of at least 3 independent experiments. (FIG. 4H) Flow cytometry analysis of nanobodies T2a, T8 and G3a on BHK-21 cells expressing 2PT-F508del showing increased labelling for T2a and G3a, but not T8. (FIG. 4I) Quantification of data illustrated in […]. Average of 3 independent experiments (±SEM).
Strep-Tactin XT coated microplate (iba Life Science) was coated overnight at 4° C. with Twin-Strep-tagged nanobodies (5 μg/ml). […] CFTR binding was detected with monoclonal antibodies L12B4, MM13, 154, 660, 570, 596 specific to CFTR obtained from the CFTR Antibody Distribution Program (http://cftrantibodies.web.unc.edu/available-antibodies)46 and then anti-mouse-HRP antibody (Millipore, catalogue number: AP308P, 0.5 μg/ml) for 1 h 30 min at 4° C. […] Nanobody binding was detected with Myc-tag specific antibody (Sigma, catalogue number: C3956, 0.5 μg/ml) and then anti-rabbit-HRP antibody (Cell Signaling, catalogue number: 7074S, 1:1000 dilution) for 1 h 30 min at 4° C. […]

[2] = target: T1, Purified human wt-CFTR …; experiment: cell-based or functional assay
[3] = target: T2, 2PT-NBD1 (human CFTR nucleotide-binding domain 1, residues 387-646, with S492P, A534P, I539T) (human, UniProt P13569 388-646, biotinylated for the ELISA (sites not given)); experiment: cell-based or functional assay
[4] = target: T2, 2PT-NBD1 (human CFTR nucleotide-binding …); experiment: ELISA, biotinylated 2PT-NBD1 on avidin-coated plate, nanobody titrated, anti-His detection; column head 'pEC50 (M)'
Method: (a) Nanobody binding to 2PT-NBD1 measured by ELISA. Biotinylated 2PT-NBD1 was immobilized on avidin-coated plates and incubated with increasing concentration of each nanobody. Binding of nanobody was followed by immunodetection of the His-tag (see Methods). Representative curve of 3 independent experiments is shown. Error bars represent the standard deviation (SD) of duplicates. Data were normalized to maximum signal for each nanobody separately. (b) Nanobody binding to F508del-2PT-NBD1 measured by ELISA as described in panel a. (c) Nanobody T4 binding to 2PT-NBD1 and F508del-2PT-NBD1. Data were normalized to maximum signal of T4 binding to 2PT-NBD1. (d) Nanobody T8 binding to 2PT-NBD1 and F508del-2PT-NBD1. Data were normalized to maximum signal of T8 binding to 2PT-NBD1.
For dose-response assays, Nunc MaxiSorp 96-well plates (ThermoScientific), were coated with 5 μg/ml NeutrAvidin Biotin-Binding protein (ThermoScientific) overnight at 4° C. and blocked 2 h at room temperature (RT) with 2% milk in phosphate-buffered saline (PBS). Each new reagent addition was preceded by three washes with 200 μl of NBD1 buffer (20 mM HEPES pH 7.5, 150 mM NaCl, and 10% (w/v) glycerol, 10% (w/v) ethylene glycol, 2 mM ATP, 3 mM MgCl₂). Then, biotinylated purified NBD1 proteins at 5 μg/ml were immobilized 30 min at RT followed by 1 h RT incubation with 100 μl various concentrations (0-20 μg/ml) of purified nanobodies. Signal detection was followed using His-tag specific antibody (Invitrogen, catalogue number: MA1-135, 1:3000 dilution) to detect the nanobodies and secondary antibody anti-mouse coupled to horse radish peroxidase (HRP) (Millipore, catalogue number: AP308P, 1:5000 dilution). 50 μl of 1-Step UltraTMB-ELISA (ThermoScientific) was used as a substrate for the peroxidase and intensity of the reaction was proportional to absorbance measured at 450 nm with SynergyMx (BioTek) after addition of 50 μl H₂SO₄ at 1M.

T2 sequence (P13569 388-646 V470M/S492P/A534P/I539T limits assumed): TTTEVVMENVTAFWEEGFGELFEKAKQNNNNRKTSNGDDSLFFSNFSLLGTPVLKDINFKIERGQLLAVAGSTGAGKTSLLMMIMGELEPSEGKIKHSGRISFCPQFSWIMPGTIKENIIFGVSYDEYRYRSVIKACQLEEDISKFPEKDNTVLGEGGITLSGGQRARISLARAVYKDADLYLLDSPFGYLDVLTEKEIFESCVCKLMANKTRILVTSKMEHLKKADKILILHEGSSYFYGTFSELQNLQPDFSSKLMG
T1 sequence (P13569 whole entry): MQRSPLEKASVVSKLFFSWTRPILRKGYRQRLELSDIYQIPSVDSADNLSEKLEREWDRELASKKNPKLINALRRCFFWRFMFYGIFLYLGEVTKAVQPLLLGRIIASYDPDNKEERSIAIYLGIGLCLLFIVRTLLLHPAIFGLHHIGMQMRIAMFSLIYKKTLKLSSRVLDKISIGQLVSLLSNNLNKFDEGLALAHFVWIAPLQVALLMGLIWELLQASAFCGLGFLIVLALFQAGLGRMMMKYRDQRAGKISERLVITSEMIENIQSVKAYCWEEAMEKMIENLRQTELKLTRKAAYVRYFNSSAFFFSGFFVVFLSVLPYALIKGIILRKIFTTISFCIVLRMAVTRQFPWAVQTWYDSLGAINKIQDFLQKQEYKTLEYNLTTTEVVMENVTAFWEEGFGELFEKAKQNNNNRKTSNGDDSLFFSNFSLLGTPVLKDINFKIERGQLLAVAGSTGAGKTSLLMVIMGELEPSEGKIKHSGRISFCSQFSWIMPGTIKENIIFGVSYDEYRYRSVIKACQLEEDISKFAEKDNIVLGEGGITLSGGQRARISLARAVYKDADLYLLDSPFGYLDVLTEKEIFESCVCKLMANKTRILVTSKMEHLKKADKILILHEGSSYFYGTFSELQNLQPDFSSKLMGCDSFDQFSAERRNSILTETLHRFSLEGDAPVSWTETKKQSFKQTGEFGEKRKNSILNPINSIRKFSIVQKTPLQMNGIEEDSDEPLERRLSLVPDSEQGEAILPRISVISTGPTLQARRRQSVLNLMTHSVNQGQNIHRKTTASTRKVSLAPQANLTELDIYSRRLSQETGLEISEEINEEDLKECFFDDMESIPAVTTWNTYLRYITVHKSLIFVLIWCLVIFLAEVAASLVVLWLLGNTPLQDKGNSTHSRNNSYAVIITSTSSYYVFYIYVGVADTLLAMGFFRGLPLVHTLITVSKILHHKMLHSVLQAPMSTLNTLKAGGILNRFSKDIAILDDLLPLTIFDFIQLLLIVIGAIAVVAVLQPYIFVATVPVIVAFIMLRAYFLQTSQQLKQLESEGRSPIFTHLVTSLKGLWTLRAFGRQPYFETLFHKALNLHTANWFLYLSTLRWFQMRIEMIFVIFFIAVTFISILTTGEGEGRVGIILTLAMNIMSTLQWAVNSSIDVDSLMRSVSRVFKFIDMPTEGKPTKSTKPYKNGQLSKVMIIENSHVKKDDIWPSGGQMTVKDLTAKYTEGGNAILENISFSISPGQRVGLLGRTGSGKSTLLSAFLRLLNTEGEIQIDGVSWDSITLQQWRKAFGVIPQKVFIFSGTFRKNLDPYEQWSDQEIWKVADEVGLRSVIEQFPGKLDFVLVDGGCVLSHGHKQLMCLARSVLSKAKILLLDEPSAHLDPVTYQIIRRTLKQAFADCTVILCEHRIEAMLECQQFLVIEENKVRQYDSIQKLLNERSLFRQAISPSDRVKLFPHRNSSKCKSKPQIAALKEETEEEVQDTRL

EC50 (read off the curve) [1]: ~2 nM
ATPase activity (% of PKA-phosphorylated CFTR) [2]: 60%
pEC50 [4]: 7.9
B1: Nanobody T8 (VHH, not shown: small tags and cut ends)
VHH: QVQLQESGGGLVQPGGSLRLSCAASGSTSSINAMGWYRQAPGKQREPVAISSSGGDTRYAEPVKGRFTISRDNAQNKVYLQMNSLKPEDTAVYYCWLNWGRTSVNSWGQGTQVTVSS
notes: Llama nanobody; also called Nb T8; T8 Nb
increase of Tm (thermal shift assay, DSF) [3]: 9.3 °C

EC50 (read off the curve) [1]: ~3 nM
ATPase activity (% of PKA-phosphorylated CFTR) [2]: 50%
pEC50 [4]: 7.9
B2: Nanobody T2a (VHH, not shown: small tags and cut ends)
VHH: QVQLQESGGGLVQAGGSLRLSCAASGSIFRIDAMGWYRQAPGKQRELVAHSTSGGSTDYADSVKGRFTISRDNAKNTVYLQMNSLKPEDTAVYYCNADVRTRWYASNNYWGQGTQVTVSS
notes: Llama nanobody; also called Nb T2a; T2a Nb
increase of Tm (thermal shift assay, DSF) [3]: 11.2 °C
